Consider 15 molecules from article PMC13071878, “Yeast Display Technology Enables Rapid Discovery of Low-Nanomolar Macrocyclic Peptide Inhibitors of Human Angiotensin-Converting Enzyme 2” (Journal of Medicinal Chemistry, 2026).

pIC50, pKd, pKi: −log10 of the molar value. Like-named read-outs stand apart in the source and are kept apart here.

Data set [1] addresses T1, hACE2 (Homo sapiens, UniProt Q9BYF1). The arrangement: method as in ref 4 (SI list; Huang et al. 2003). As to conditions: phage display DX peptides; ref 4 (SI list; Huang et al. 2003); cited from earlier work.
Data set [2] deals with T1, hACE2. The arrangement: method as in ref 4 (SI list; Huang et al. 2003). The conditions noted are these: phage display DX peptides, ref 4 (SI list; Huang et al. 2003), cited from earlier work; for pKi: where not reported, calculated by Cheng-Prusoff, Km 23 μM.
Data set [3] addresses T1, hACE2. Put plainly: biochemical.
Description: The activity assay was performed by incubating 0.25 nM of hACE2 with 50 μM fluorogenic substrate Mca-Ala-Pro-Lys­(Dnp)–OH (MedChemExpress, Monmouth Junction, NJ, USA) and 3-fold MP dilutions (ranging from 0.03 nM to 100 μM). […] All reagents were diluted in 10 mM Tris–HCl, pH 7.4, 300 mM NaCl, 100 μM ZnCl2, 0.1% w/v BSA, and 0.1% v/v DMSO assay buffer. The measurements were performed on a Berthold TriStar LB 941 microplate reader (Berthold Technologies, Bad Wildbad, Germany) using flat-bottom 96-well half area Corning Costar plates (Corning, New York, USA). The enzymatic reactions were performed at 25 °C for 90 min, under shaking with a maximum excitation wavelength (λex) of 320 nm and maximum emission wavelength (λem) of 405 nm. The initial velocities were monitored as changes in fluorescence intensity. Half-maximum inhibitory concentration (IC50) values were determined using GraphPad Prism v8.2.1 software (GraphPad software Inc., San Diego, CA, USA). […] Fluorescence was recorded as described earlier (λex = 320 nm, λem = 405 nm) using a Berthold TriStar LB 941 microplate reader (Berthold Technologies, Bad Wildbad, Germany). Initial velocities (V 0) were plotted against substrate concentrations [S] and analyzed via nonlinear regression using a one-site specific binding model using GraphPad Prism v8.2.1 software (GraphPad software Inc., San Diego, CA, USA). […]
In data set [4] the target is T1, hACE2. The class given is binding. The conditions noted are these: yeast-displayed MP, serial dilutions of biotinylated hACE2.
In another data set the target is T2, hACE1 (Homo sapiens, UniProt P12821).
T2 construct: purchased R&D Systems
Put plainly: biochemical.

The target in data set [5] is T1, hACE2. Put plainly: Grating-coupled interferometry of synthetic MPs on immobilized hACE2. It is filed as binding. The conditions noted are these: synthetic MP, immobilized hACE2, 25 °C, pH 7.4, n = 1; read-out: KD (GCI).
Description: Measurements were performed using a Creoptix WAVEsystem and a 4PCH-STA WAVEchip (Creoptix, Malvern Panalytical, Malvern, UK). Prior to immobilization, all four flow channels were conditioned with 100 mM sodium borate, 1 M NaCl buffer pH 9.0, for 180 s at 10 μL/min, followed by three start-up cycles (3 cycles of 60 s at 10 μL/min) in running buffer (1X PBS pH 7.4 supplemented with 0.005% v/v Tween-20). Biotinylated hACE2 (10 μg/mL in running buffer) was captured on the chip surface with a 420 s injection cycle at 10 μL/min, achieving a target immobilization level of approximately 1000 pg/mm^2 surface mass per flow cell. Excess of unbound hACE2 was removed by washing with running buffer for 60 s at 10 μL/min. Binding experiments were conducted using regeneration-free kinetics (RFK). Seven serial 2-fold dilutions of each synthetic MP (2.5, 5, 10, 20, 40, 80, and 160 nM in running buffer) were injected at 25 °C with a continuous flow rate of 60 μL/min. Each MP concentration was allowed to associate for 60 s and dissociate for 45 s, with a final dissociation phase of 300 s monitored after the highest concentration. Response signals were double-referenced by subtracting the signal from an unmodified reference channel (untreated flow cell without hACE2 protein) and the signal from blank buffer injections to correct for bulk refractive index changes and systematic artifacts.
Data set [6] concerns the target T1, hACE2. Put plainly: Isothermal titration calorimetry of synthetic MPs with hACE2. The class given is binding. The conditions noted are these: 25 °C; for -TΔS (ITC): calculated. On the procedure: Isothermal titration calorimetry (ITC) experiments were performed at 25 °C using a MicroCal iTC200 instrument ([…], Malvern Panalytical, Malvern, UK). The hACE2 protein (initial stock 11 mg/mL, 20 mM Tris pH 7.4, 200 mM NaCl) was diluted into the assay buffer (100 mM Tris pH 7.4, 200 mM NaCl) to a final concentration of 5 μM. […] Titrations consisted of an initial 0.4 μL injection (excluded from subsequent data analysis), followed by 18 injections of 2 μL each, with a stirring rate of 750 rpm to ensure rapid mixing. A 120 s interval was maintained between injections to ensure the baseline returned to equilibrium. Blank experiments involving the titration of the synthetic MPs into the assay buffer were performed to determine and subtract the heats of dilution. Data processing was conducted using the Origin software package version 7 (OriginLab Corporation, Northampton, MA, USA). The integrated heat signals were fitted to a single-site binding model to determine the association constant (K A), the dissociation constant ([…]), the enthalpy change (ΔH), and the binding stoichiometry (n). The Gibbs free energy (ΔG) and the entropy change (ΔS) were calculated using the standard thermodynamic relationship: ΔG=ΔH−TΔS=−RTln(KA)

A short description of data set [7]: Plasma stability of synthetic peptides (LC-MS). The conditions noted are these: 37 °C; for half-life: human, plasma, plasma half-life t1/2, human plasma, 10 μM, LC-MS, n = 2. On the procedure:
The mixtures were incubated at 37 °C in a water bath (VWR, Pennsylvania, PA, USA). At designated time points (0, 0.25, 0.5, 1, 2, 4, 8, 24, and 48 h), 100 μL aliquots were withdrawn and quenched with 100 μL of 100% v/v ACN. Following centrifugation (10 min at 15000 g, 4 °C), 100 μL of the supernatant was collected and diluted with 50 μL of solvent A (99.9% v/v H2O and 0.1% v/v FA). Samples were characterized by LC–MS using an Agilent 1260 Infinity II LC system coupled to an InfinityLab LC/MSD mass spectrometer (Agilent Technologies, Santa Clara, CA, USA). The system operated with a standard ESI source in negative ionization mode. Separation was performed on a reversed-phase Symmetry C18 column (5 μm, 150 mm × 4.6 mm, Waters, Milford, MA, USA) using a linear gradient of 10–100% solvent B over 22 min at a flow rate of 0.6 mL/min (Solvent A: 99.9% v/v H2O and 0.1% v/v FA; Solvent B: 99.9% v/v ACN and 0.1% v/v FA). Data acquisition, processing, and analysis were performed using MestReNova v.12.0.1 (Mestrelab Research, Santiago de Compostela, Spain). All samples were analyzed in duplicate (n = 2). The percentage of remaining peptide was calculated by integrating the peak areas, with the area at 0 h defined as 100%. Half-lives (t 1/2) were determined via nonlinear regression analysis using GraphPad Prism (GraphPad software Inc., San Diego, CA, USA). Data are presented as mean values ± s.d.

The test system of data set [8] is mouse model of induced colitis. The arrangement: method as in ref 26 (Byrnes et al. 2009). As to conditions: 300 mg/kg twice daily, citation mark lost in text, ref 26 (Byrnes et al. 2009); cited from earlier work.

T1 sequence (Q9BYF1 19-615): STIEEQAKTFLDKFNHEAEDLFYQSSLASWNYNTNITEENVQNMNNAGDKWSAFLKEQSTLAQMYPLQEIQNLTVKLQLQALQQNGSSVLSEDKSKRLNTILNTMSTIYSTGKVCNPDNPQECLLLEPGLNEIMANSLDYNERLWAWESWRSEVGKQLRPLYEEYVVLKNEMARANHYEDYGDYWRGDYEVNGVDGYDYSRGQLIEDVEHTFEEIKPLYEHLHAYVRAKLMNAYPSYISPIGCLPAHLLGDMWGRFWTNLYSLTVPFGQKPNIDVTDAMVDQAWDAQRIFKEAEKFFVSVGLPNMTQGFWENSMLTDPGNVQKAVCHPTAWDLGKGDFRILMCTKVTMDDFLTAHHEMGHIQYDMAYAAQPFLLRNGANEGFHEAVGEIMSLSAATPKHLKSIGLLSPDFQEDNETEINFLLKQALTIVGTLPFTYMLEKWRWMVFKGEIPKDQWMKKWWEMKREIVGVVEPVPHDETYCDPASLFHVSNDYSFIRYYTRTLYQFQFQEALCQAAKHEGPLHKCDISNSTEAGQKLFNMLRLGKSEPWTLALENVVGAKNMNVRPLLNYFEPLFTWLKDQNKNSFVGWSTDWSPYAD
T2 sequence (P12821 30-1306): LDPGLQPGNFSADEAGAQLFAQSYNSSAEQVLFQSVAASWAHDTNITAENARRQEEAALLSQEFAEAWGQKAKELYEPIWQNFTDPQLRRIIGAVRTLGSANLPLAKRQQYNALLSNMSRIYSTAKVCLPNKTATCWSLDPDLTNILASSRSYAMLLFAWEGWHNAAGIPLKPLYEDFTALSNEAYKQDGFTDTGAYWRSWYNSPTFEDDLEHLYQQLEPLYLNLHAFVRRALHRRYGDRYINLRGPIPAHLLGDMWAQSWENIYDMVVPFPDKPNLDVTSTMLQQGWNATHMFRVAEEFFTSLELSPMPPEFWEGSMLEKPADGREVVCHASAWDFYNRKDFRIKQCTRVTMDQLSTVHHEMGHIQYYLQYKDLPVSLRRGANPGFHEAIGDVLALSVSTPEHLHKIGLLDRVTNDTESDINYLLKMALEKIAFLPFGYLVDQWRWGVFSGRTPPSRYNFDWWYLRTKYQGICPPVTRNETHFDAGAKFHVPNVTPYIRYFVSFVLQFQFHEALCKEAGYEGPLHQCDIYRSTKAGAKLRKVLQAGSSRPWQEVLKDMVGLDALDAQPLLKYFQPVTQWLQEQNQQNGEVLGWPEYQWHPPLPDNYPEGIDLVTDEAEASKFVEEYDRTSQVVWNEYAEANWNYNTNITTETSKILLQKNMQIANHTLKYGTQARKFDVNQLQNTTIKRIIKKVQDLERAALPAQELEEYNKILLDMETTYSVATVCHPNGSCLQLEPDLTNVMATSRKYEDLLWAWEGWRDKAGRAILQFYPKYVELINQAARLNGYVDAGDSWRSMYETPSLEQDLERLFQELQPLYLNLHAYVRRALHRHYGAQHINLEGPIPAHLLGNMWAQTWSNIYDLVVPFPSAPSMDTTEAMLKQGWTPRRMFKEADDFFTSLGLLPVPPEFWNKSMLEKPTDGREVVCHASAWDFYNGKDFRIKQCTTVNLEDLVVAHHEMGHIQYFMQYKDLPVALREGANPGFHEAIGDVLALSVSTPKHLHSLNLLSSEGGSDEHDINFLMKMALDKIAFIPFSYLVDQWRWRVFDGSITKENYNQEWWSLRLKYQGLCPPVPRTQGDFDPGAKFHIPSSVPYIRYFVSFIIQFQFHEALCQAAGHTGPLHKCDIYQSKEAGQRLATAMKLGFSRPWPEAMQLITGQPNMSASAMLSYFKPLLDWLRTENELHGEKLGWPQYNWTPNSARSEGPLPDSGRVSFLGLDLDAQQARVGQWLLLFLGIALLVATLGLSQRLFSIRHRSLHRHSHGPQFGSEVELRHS
Description for hACE1: The activity assay was performed by incubating 0.25 nM of hACE2 with 50 μM fluorogenic substrate Mca-Ala-Pro-Lys­(Dnp)–OH (MedChemExpress, Monmouth Junction, NJ, USA) and 3-fold MP dilutions (ranging from 0.03 nM to 100 μM). […] All reagents were diluted in 10 mM Tris–HCl, pH 7.4, 300 mM NaCl, 100 μM ZnCl2, 0.1% w/v BSA, and 0.1% v/v DMSO assay buffer. The measurements were performed on a Berthold TriStar LB 941 microplate reader (Berthold Technologies, Bad Wildbad, Germany) using flat-bottom 96-well half area Corning Costar plates (Corning, New York, USA). The enzymatic reactions were performed at 25 °C for 90 min, under shaking with a maximum excitation wavelength (λex) of 320 nm and maximum emission wavelength (λem) of 405 nm. The initial velocities were monitored as changes in fluorescence intensity. Half-maximum inhibitory concentration (IC50) values were determined using GraphPad Prism v8.2.1 software (GraphPad software Inc., San Diego, CA, USA). […] Reactions were initiated by adding hACE2 (final concentration 0.25 nM) to the fluorogenic substrate in assay buffer at 25 °C. Fluorescence was recorded as described earlier (λex = 320 nm, λem = 405 nm) using a Berthold TriStar LB 941 microplate reader (Berthold Technologies, Bad Wildbad, Germany). Initial velocities (V 0) were plotted against substrate concentrations [S] and analyzed via nonlinear regression using a one-site specific binding model using GraphPad Prism v8.2.1 software (GraphPad software Inc., San Diego, CA, USA). […] All reagents were diluted in 10 mM Tris-HCl, pH 7.4, 300 mM NaCl, 100 μM ZnCl2, 0.1% w/v BSA, and 0.1% v/v DMSO buffer. Measurements and data analysis were performed as mentioned above.

As a reminder, the pKd is the negative decadic logarithm of the Kd, by convention in mol/L. As usually defined, the pIC50 is −log10 of the IC50, conventionally taken in molar units. Broadly, the pKi is −log10 of the Ki, conventionally taken in molar units. For GDRLHCKPQRQSPWMKCQHLDP [DX512], the pKd with hACE2 [1] is 7.02. Also, in the data set with hACE2 [2], the pIC50 is 7.22 and the negative-log Ki (pKi) was 6.86.

For the molecule `CC(C)C[C@@H]1NC(=O)[C@H](Cc2ccccc2)NC(=O)[C@@H](NC(=O)[C@H](C)N)CSSC[C@@H]2NC(=O)[C@H](CCCCN)NC(=O)[C@H](C(C)C)NC(=O)[C@H](CC(=O)O)NC(=O)[C@H](CCCNC(=N)N)NC(=O)[C@H](Cc3c[nH]cn3)NC(=O)[C@H](CSSC[C@@H](C(=O)N[C@@H](CO)C(=O)NCC(N)=O)NC(=O)[C@H](Cc3c[nH]c4ccccc34)NC(=O)[C@H](CC(C)C)NC(=O)[C@H](Cc3c[nH]c4ccccc34)NC2=O)NC(=O)[C@H](CCCNC(=N)N)NC1=O` [GR3.1.3], the pKi on hACE2 [3] was 5.98.

Regarding GDGFTCSPIRMFPWFRCDLGDP [DX601], the pKd in the data set with hACE2 [1] is 7.25. For the same molecule, in the data set with hACE2 [2], the pIC50 is 7.25 and the pKi is 7.51.

Turning to ACEPLGYALFLCSG [GR1.9], the “binding to hACE2 in yeast surface titration (in words)” value (shortened to “binding to hACE2”) in the data set with hACE2 [4] is reported as “significantly attenuated”.

On to GDRYLCLPQRDKPWKFCNWFDP [DX599], for which the pKd with hACE2 [1] is 7.31. Moreover, in the data set with hACE2 [2], the pIC50 was 6.94 and the pKi was 7.33.

For the molecule GDFSPCKALRHSPWWVCPSGDP [DX602], in the data set with hACE2 [1], the pKd was 7.13. In addition, in the data set with hACE2 [2], the pIC50 was 6.89 and the pKi is 6.92.

As for “ACEPLGFNRWICSG [GR1.3, yeast-encoded “one-ring” macrocyclic peptide, GR1 family]”, in the data set with hACE2 [4], the “binding to hACE2” value is “comparable binding affinities”.

Consider ACEPLGANLFLCSG [GR1.8], for which the “binding to hACE2” value with hACE2 [4] is “completely abolished”.

The half-life is the time in which the quantity being followed falls by half. The low end stands for fast loss, the high end for slow loss. At hACE2 [3], `CC(C)C[C@@H]1NC(=O)[C@H](Cc2ccccc2)NC(=O)[C@@H](NC(=O)[C@H](C)N)CSSC[C@@H](C(=O)N[C@@H](CO)C(=O)NCC(N)=O)NC(=O)[C@H](Cc2c[nH]c3ccccc23)NC(=O)[C@H](CC(C)C)NC(=O)[C@H](Cc2c[nH]c3ccccc23)NC(=O)[C@@H]2CSSC[C@H](NC(=O)[C@H](CCCNC(=N)N)NC1=O)C(=O)N[C@@H](Cc1c[nH]cn1)C(=O)N[C@@H](CCCNC(=N)N)C(=O)N[C@@H](CC(=O)O)C(=O)N[C@@H](C(C)C)C(=O)N[C@@H](CCCCN)C(=O)N2` [GR3.1.2] had a pKi of 8.82. Moreover, at hACE1, the pIC50 was less than 4.00 and the pKi was less than 4.00. Also, the negative logarithm of the Kd (pKd) on hACE2 [5] is 8.39. Also, on hACE2 [6], the “ΔH (ITC)” value was -34.1 ± 0.6 kJ/mol and the “-TΔS (ITC)” value is listed as -8.2 kJ/mol. Further, in data set [7] (human plasma), the “t1/2 times longer than GR1.1” value was 1.5 times and the “t1/2 times longer than GR1.4” value amounted to 1.3 times. This molecule had a half-life in data set [7] of 8.6 h.

Regarding `CC(C)C[C@H](N[C@@H](Cc1cncn1Cc1cc(Cl)cc(Cl)c1)C(=O)O)C(=O)O` [MLN-4760], in data set [8], the “effect on disease severity” value is given as “reduce disease severity”.

In the case of `CC[C@H](C)[C@@H]1NC(=O)[C@H](Cc2ccccc2)NC(=O)[C@H](Cc2ccccc2)NC(=O)[C@@H](NC(=O)[C@H](C)N)CSSC[C@@H](C(=O)N[C@@H](CO)C(=O)NCC(N)=O)NC(=O)[C@H]([C@@H](C)CC)NC(=O)[C@H](Cc2c[nH]c3ccccc23)NC(=O)[C@H](CCCNC(=N)N)NC(=O)[C@H](CC(N)=O)NC(=O)[C@H](Cc2ccccc2)NC(=O)CNC1=O` [GR1.1], on hACE1, the pIC50 was less than 4.00 and the pKi was less than 4.00. In addition, in data set [7], the half-life was 5.4 h.

For the molecule ACEPAGYNLFLCSG [GR1.6], the “binding to hACE2” value in the data set with hACE2 [4] was “completely abolished”.

On hACE1, `CC(C)C[C@@H]1NC(=O)[C@H](CC(N)=O)NC(=O)[C@H](Cc2ccc(O)cc2)NC(=O)CNC(=O)[C@H](CC(C)C)NC(=O)[C@@H]2CCCN2C(=O)[C@H](CCC(=O)O)NC(=O)[C@@H](NC(=O)[C@H](C)N)CSSC[C@@H](C(=O)N[C@@H](CO)C(=O)NCC(N)=O)NC(=O)[C@H](CC(C)C)NC(=O)[C@H](Cc2ccccc2)NC1=O` [GR1.4] showed a pIC50 of less than 4.00 and a pKi of less than 4.00. At hACE2 [6], the “ΔH (ITC)” value was -33.5 ± 0.5 kJ/mol and the “-TΔS (ITC)” value is -8.1 kJ/mol. Further, in data set [7], the half-life is 6.5 h.

As to ACEPLAYNLFLCSG [GR1.7], in the data set with hACE2 [4], the “binding to hACE2” value is on record as “completely abolished”.

With GDLHACRPVRGDPWWACTLGDP [DX513], in the data set with hACE2 [1], the pKd is 6.77. Also, in the data set with hACE2 [2], the pIC50 is 7.05 and the pKi was 6.90.
